Data published in patent US9340579B2, “DPP-4 inhibitor” (NIPPI, INCORPORATED, priority 2011, dated 2016).
Where two headings read alike, the source gives them in different places. Square brackets hold non-standard residues; d marks the D form. Ends that are not written are not given here. Peptide text beside a SMILES is read from it. Hyp = O=C(O)[C@@H]1C[C@@H](O)CN1

What was measured:
[1] = target: T1, DPP-4 (manufactured by Sigma, derived from porcine kidney) (Sus scrofa, UniProt P22411); assay: DPP-4 inhibition rate and IC50 measurement, fluorescence of AMC freed from Gly-Pro-MCA; assay type: biochemical; conditions: for inhibition at 350 µg/mL / Inhibition rate (%) at 0.35 mg/ml time: sample 0.35 mg/ml, substrate Gly-Pro-MCA, pH 7.5, 37° C.; for inhibition at 350 µg/mL: read-out: Inhibition rate (%) at 0.35 mg/ml time
T1 construct: derived from porcine kidney; purchased Sigma; host or cells: porcine kidney (tissue-derived)
Method: A sample liquid 35 μl obtained by dissolving a sample 1 mg in 50 mM tris-hydrochloric acid buffer (pH 7.5) 1 ml and DPP-4 (manufactured by Sigma, derived from porcine kidney; 8.6 mU/ml) 15 μl that had been dissolved in 50 mM tris-hydrochloric acid buffer (pH 7.5) were mixed in a microtiter plate well (manufactured by NUNC, trade name “237015”) and incubated at 37° C. for 10 minutes.
Thereto, 50 μl of a substrate solution (one obtained by dissolving glycyl-Pro-4-methylcoumarin-7-amide (Gly-Pro-MCA) in 50 mM tris-hydrochloric acid buffer (pH 7.5) so as to be 10 μM) that had in advance heated to and kept at 37° C. was added, mixed, and allowed to react at 37° C. for 20 minutes.
The fluorescence intensity of 7-amino-4-methylcoumarin (AMC) that was freed by DPP-4 was measured with time by a microplate reader type fluorescence detector (manufactured by Corona Electric Co., Ltd., trade name “SH-9000”). Note that the measurement wavelength was an excitation wavelength of 380 nm and a measurement wavelength of 460 nm. Note that one obtained by using the same amount of 50 mM tris-hydrochloric acid buffer (pH 7.5) in replace of the sample was used as a control; and the fluorescence intensity thereof was measured.
The activity of DPP-4 was expressed by an average gradient of change in the amount of the fluorescence intensity during the reaction time; and, as for DPP-4 inhibition rate, difference obtained by, with the control as 100%, subtracting the activity of the sample from the above-mentioned control was calculated as an inhibition rate (%).
In accordance with the above method of measuring a DPP-4 inhibition rate, sample concentration was changed between 0.001 and 7.2 μmol/ml to obtain the inhibition rate, thereby calculating the 50% inhibitory concentration (IC50 value) of the activity of DPP-4.

[2] = target: T2, DPP-4 (manufactured by Sigma, derived from porcine kidney) (porcine, UniProt P22411 38-766, limits assumed); assay: cell-based or functional assay
[3] = target: T2, DPP-4 (manufactured by Sigma, derived …); assay: cell-based or functional assay; remark: listed apart in the source
[4] = Table 2, sample concentration changed between 0.001 and 7.2 μmol/ml, read-out: IC50 value
[5] = Table 1, sample concentration changed between 0.001 and 7.2 μmol/ml, read-out: IC50 value
[6] = Table 1, sample concentration changed between 0.001 and 7.2 μmol/ml

T2 sequence (P22411 38-766 limits assumed): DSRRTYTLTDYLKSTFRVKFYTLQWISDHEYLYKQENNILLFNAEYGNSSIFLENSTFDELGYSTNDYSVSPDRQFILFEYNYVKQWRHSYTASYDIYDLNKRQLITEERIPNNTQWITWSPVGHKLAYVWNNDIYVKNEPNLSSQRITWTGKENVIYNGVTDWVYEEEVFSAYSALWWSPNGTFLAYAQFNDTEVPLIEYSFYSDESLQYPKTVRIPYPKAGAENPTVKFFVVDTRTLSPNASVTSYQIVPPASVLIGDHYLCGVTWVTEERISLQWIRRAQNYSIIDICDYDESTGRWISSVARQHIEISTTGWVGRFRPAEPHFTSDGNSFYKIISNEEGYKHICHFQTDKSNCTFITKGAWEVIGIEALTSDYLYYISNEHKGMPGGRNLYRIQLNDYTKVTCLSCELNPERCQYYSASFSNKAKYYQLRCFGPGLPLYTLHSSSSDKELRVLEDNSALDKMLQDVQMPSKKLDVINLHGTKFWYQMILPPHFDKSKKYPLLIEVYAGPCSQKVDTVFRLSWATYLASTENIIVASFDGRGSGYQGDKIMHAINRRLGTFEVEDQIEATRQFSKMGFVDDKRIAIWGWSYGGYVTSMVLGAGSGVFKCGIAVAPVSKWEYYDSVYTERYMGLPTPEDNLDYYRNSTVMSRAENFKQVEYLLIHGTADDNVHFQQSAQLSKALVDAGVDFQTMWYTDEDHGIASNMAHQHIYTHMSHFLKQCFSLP
T1 sequence (P22411 whole entry): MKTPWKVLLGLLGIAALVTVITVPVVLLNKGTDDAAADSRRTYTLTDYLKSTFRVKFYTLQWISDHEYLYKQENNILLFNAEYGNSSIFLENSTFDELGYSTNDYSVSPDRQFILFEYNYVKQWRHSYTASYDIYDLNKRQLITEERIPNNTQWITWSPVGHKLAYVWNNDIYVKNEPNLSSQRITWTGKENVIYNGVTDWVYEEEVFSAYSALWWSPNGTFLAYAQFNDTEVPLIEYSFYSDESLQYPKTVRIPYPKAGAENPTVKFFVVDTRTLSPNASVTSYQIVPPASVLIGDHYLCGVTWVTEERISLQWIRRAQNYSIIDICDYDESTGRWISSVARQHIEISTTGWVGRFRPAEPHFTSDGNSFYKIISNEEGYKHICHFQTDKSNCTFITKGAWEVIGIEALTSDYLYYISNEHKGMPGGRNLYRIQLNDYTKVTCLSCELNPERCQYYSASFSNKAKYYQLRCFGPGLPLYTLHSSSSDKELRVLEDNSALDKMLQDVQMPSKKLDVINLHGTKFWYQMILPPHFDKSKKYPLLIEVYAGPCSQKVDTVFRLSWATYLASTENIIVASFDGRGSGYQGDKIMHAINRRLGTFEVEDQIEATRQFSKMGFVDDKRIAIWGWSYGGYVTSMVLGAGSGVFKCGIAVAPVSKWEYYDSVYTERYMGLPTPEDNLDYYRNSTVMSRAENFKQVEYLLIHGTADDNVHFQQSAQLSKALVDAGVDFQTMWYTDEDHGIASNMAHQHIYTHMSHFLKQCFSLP

CC(C)C[C@H](N)C(=O)N1C[C@H](O)C[C@H]1C(=O)NCC(=O)O [Example 21, Leu-Hyp-Gly] (H-Leu-[Hyp]-Gly-OH)
inhibition at 350 µg/mL ([1]; Table 2): 89.3%
IC50 [1, 4]: 130 µM

GPIGPV [Example 6, Gly-Pro-Ile-Gly-Pro-Val]
IC50 [1]: 9.3 µM

C[C@H](NC(=O)[C@@H]1CCCN1C(=O)CN)C(=O)NCC(=O)O [Example 9, Gly-Pro-Ala-Gly] (H-GPAG-OH; N-terminus and C-terminus assumed)
IC50 [1, 5]: 150 µM

Gly-Pro-Hyp (Gly-Pro-[Hyp]) [Comparative Example 1, reference compound]
Inhibition rate (%) at 0.35 mg/ml time ([1]; Table 1): 0%
IC50 value [1, 6]: No inhibitory

GPLGPV [Example 5, Gly-Pro-Leu-Gly-Pro-Val]
IC50 [1, 5]: 24 µM

C[C@H](NC(=O)[C@@H]1CCCN1C(=O)CN)C(=O)NCC(=O)N1CCC[C@H]1C(=O)N1C[C@H](O)C[C@H]1C(=O)O [Example 3, Gly-Pro-Ala-Gly-Pro-Hyp] (H-GPAGP[Hyp]-OH; N-terminus and C-terminus assumed)
IC50 [1, 5]: 70 µM

O=C(O)CNC(=O)[C@@H]1C[C@@H](O)CN1C(=O)[C@@H]1CCCN1 [Example 24, Pro-Hyp-Gly] (H-Pro-[Hyp]-Gly-OH; N-terminus and C-terminus assumed)
inhibition at 350 µg/mL ([1]; Table 2): 27.2%
IC50 [1, 4]: 4640 µM

GPAGPR [Example 2, Gly-Pro-Ala-Gly-Pro-Arg]
IC50 [1, 5]: 80 µM

CC(C)C[C@H](N)C(=O)N1CCC[C@H]1C(=O)O [Example 16, Leu-Pro] (H-Leu-Pro-OH; N-terminus and C-terminus assumed)
inhibition at 350 µg/mL ([1]; Table 2): 92.1%
IC50 [1, 4]: 110 µM

H-GPAGP-OH [Example 1, Gly-Pro-Ala-Gly-Pro]
inhibition at 350 µg/mL ([1]; Table 1): 95.8%
IC50 [1, 5]: 60 µM

Gly-Ala-Hyp (Gly-Ala-[Hyp]) [compound 2, reference compound]
Inhibition rate (%) at 0.35 mg/ml time ([1]; Table 1): 0%
IC50 value [1, 6]: No inhibitory

LPGPA [Example 18, Leu-Pro-Gly-Pro-Ala]
inhibition at 350 µg/mL ([1]; Table 2): 94.9%
IC50 [1, 4]: 63 µM

CC[C@H](C)[C@H](N)C(=O)N1C[C@H](O)C[C@H]1C(=O)NCC(=O)O [Example 22, Ile-Hyp-Gly] (H-Ile-[Hyp]-Gly-OH; N-terminus and C-terminus assumed)
inhibition at 350 µg/mL ([1]; Table 2): 71%
IC50 [1, 4]: 500 µM

GAIGPA [Example 12, Gly-Ala-Ile-Gly-Pro-Ala]
inhibition at 350 µg/mL ([1]; Table 1): 71.5%
IC50 [1, 5]: 285 µM

CC(C)C[C@H](N)C(=O)N1C[C@H](O)C[C@H]1C(=O)O [Example 20, Leu-Hyp] (H-Leu-[Hyp]-OH)
inhibition at 350 µg/mL ([1]; Table 2): 48.6%

GAIGPS [Example 13, Gly-Ala-Ile-Gly-Pro-Ser]
inhibition at 350 µg/mL ([1]; Table 1): 70.4%
IC50 [1, 5]: 314 µM

GAVGP [Example 15, Gly-Ala-Val-Gly-Pro]
inhibition at 350 µg/mL ([1]; Table 1): 40.9%
IC50 [1, 5]: 1200 µM

CC(C)C[C@H](N)C(=O)N1C[C@H](O)C[C@H]1C(=O)NCC(=O)N1CCC[C@H]1C(=O)N[C@@H](C)C(=O)O [Example 23, Leu-Hyp-Gly-Pro-Ala] (H-L[Hyp]GPA-OH)
inhibition at 350 µg/mL ([1]; Table 2): 52.1%
IC50 [1, 4]: 830 µM

GAVGPA [Example 14, Gly-Ala-Val-Gly-Pro-Ala]
inhibition at 350 µg/mL ([1]; Table 1): 63.7%
IC50 [1, 5]: 437 µM

C[C@H](NC(=O)CN)C(=O)O [Example 11, Gly-Ala] (H-Gly-Ala-OH; N-terminus and C-terminus assumed)
inhibition at 350 µg/mL ([1]; Table 1): 42.5%
IC50 [1, 5]: 3340 µM

C[C@H](N)C(=O)N1C[C@H](O)C[C@H]1C(=O)NCC(=O)O [Example 25, Ala-Hyp-Gly] (H-Ala-[Hyp]-Gly-OH; N-terminus and C-terminus assumed)
inhibition at 350 µg/mL ([1]; Table 2): 14.6%
IC50 [1, 4]: 9450 µM

GPAGPI [Example 4, Gly-Pro-Ala-Gly-Pro-Ile]
IC50 [1, 5]: 50 µM

LP [Leu-Pro]
IC50 value [2]: 0.11 µmol/mL
Inhibition rate (%) at 0.35 mg/ml time [2]: 92.1%

GAVGP [Gly-Ala-Val-Gly-Pro]
IC50 value [3]: 1.2 µmol/mL
Inhibition rate (%) at 0.35 mg/ml time [3]: 40.9%

GA [Gly-Ala]
IC50 value [3]: 3.34 µmol/mL
Inhibition rate (%) at 0.35 mg/ml time [3]: 42.5%

GAIGPA [Gly-Ala-Ile-Gly-Pro-Ala]
IC50 value [3]: 0.285 µmol/mL
Inhibition rate (%) at 0.35 mg/ml time [3]: 71.5%

Leu-[Hyp] [Leu-Hyp]
IC50 value [2]: 1.32 µmol/mL
Inhibition rate (%) at 0.35 mg/ml time [2]: 48.6%

GPAGPI [Gly-Pro-Ala-Gly-Pro-Ile]
IC50 value [3]: 0.05 µmol/mL

Gly-Pro-[Hyp] [Gly-Pro-Hyp]
Inhibition rate (%) at 0.35 mg/ml time [3]: 0%

LPGPA [Leu-Pro-Gly-Pro-Ala]
IC50 value [2]: 0.063 µmol/mL
Inhibition rate (%) at 0.35 mg/ml time [2]: 94.9%

GPAGPR [Gly-Pro-Ala-Gly-Pro-Arg]
IC50 value [3]: 0.08 µmol/mL

LPG [Leu-Pro-Gly]
IC50 value [2]: 0.05 µmol/mL

GPAGP [Gly-Pro-Ala-Gly-Pro]
IC50 value [3]: 0.06 µmol/mL
Inhibition rate (%) at 0.35 mg/ml time [3]: 95.8%

APG [Ala-Pro-Gly]
IC50 value [2]: 0.03 µmol/mL
Inhibition rate (%) at 0.35 mg/ml time [2]: 98.7%

GPQ [Gly-Pro-Gln]
IC50 value [3]: 0.31 µmol/mL
Inhibition rate (%) at 0.35 mg/ml time [3]: 80.2%

Gly-Ala-[Hyp] [Gly-Ala-Hyp]
Inhibition rate (%) at 0.35 mg/ml time [3]: 0%

GPAGP[Hyp] [Gly-Pro-Ala-Gly-Pro-Hyp]
IC50 value [3]: 0.07 µmol/mL

GPP [Gly-Pro-Pro]
IC50 value [3]: 78.2 µmol/mL
Inhibition rate (%) at 0.35 mg/ml time [3]: 10.2%

GPIGPV [Gly-Pro-Ile-Gly-Pro-Val]
IC50 value [3]: 0.0093 µmol/mL

GAIGPS [Gly-Ala-Ile-Gly-Pro-Ser]
IC50 value [3]: 0.314 µmol/mL
Inhibition rate (%) at 0.35 mg/ml time [3]: 70.4%

GAVGPA [Gly-Ala-Val-Gly-Pro-Ala]
IC50 value [3]: 0.437 µmol/mL
Inhibition rate (%) at 0.35 mg/ml time [3]: 63.7%

GPE [Gly-Pro-Glu]
IC50 value [3]: 0.194 µmol/mL
Inhibition rate (%) at 0.35 mg/ml time [3]: 86.4%

GPV [Gly-Pro-Val]
IC50 value [3]: 0.37 µmol/mL
Inhibition rate (%) at 0.35 mg/ml time [3]: 76.5%

GPLGPV [Gly-Pro-Leu-Gly-Pro-Val]
IC50 value [3]: 0.024 µmol/mL

GPAG [Gly-Pro-Ala-Gly]
IC50 value [3]: 0.15 µmol/mL
